T1: Arid5a ARID37-183 (human, UniProt Q03989 37-183)
T1 sequence: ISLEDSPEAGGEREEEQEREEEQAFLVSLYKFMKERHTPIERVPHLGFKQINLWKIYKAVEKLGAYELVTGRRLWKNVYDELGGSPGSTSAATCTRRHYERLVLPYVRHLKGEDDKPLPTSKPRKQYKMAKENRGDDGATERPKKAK

T2: ARID49-152 K85A/Q86A (human, UniProt Q03989 49-152, K85A;Q86A)
T2 sequence: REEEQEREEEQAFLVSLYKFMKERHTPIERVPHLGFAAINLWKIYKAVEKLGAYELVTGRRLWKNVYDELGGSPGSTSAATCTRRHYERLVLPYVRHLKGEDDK

T3: Arid5a ARID (Homo sapiens) (UniProt Q03989)
T3 sequence: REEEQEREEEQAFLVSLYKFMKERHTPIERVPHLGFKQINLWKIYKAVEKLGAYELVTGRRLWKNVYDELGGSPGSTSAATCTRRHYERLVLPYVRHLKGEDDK

T4: Arid5a ARID49-152 (human, UniProt Q03989 49-152)
T4 sequence: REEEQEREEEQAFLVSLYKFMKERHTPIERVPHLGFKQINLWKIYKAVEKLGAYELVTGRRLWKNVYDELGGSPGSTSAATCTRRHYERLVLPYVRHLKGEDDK


What follows are molecules tested against T1, Arid5a ARID37-183 (assay: EMSA; 10 mM MgCl2, yeast tRNA; range over WT, var1, var2, var4; 20 mM Bis-Tris pH 6.5, 150 mM NaCl, 2 mM TCEP, 0.02% NaN3; NMR at 298 K; EMSA plus 10 mM MgCl2 and 0.6 ug yeast tRNA per 20 ul, 22-24 C). Settings: protein: recombinant; tags: cloned in pET-Trx1a (TEV site); label: 5'-fluorescein on strand 1; blunt.

Molecule | Kd [nM]
FAM-13merAT (dsDNA) DNA 1: GCACAATATAACG DNA 2: CGTTATATTGTGC | ~1360
13merAT_var2 (dsDNA) DNA 1: GCACGGTATAACG DNA 2: CGTTATACCGTGC | ~1360
13merAT_var1 (dsDNA) DNA 1: GCGCAATATAGCG DNA 2: CGCTATATTGCGC | ~1360
13merAT_var4 (dsDNA) DNA 1: GCACAATACGACG DNA 2: CGTCGTATTGTGC | ~1360

What follows are molecules tested against T5, Arid1a extended ARID (human, UniProt O14497 999-1132) (assay: EMSA; 20 mM Bis-Tris pH 6.5, 150 mM NaCl, 2 mM TCEP, 0.02% NaN3; NMR at 298 K; EMSA plus 10 mM MgCl2 and 0.6 ug yeast tRNA per 20 ul, 22-24 C). Settings: protein: recombinant; tags: cloned in pET-Trx1a (TEV site); label: 5'-fluorescein on strand 1; blunt.
T5 sequence (O14497 999-1132): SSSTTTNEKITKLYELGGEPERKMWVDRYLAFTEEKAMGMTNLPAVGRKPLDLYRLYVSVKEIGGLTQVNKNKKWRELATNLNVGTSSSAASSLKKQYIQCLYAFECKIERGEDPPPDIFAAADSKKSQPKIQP

Molecule | binding result
FAM-13merAT (dsDNA) DNA 1: GCACAATATAACG DNA 2: CGTTATATTGTGC | binds

Each molecule was assayed against T1, Arid5a ARID37-183 (assay: NMR; 3.5-fold RNA; stronger than core; 20 mM Bis-Tris pH 6.5, 150 mM NaCl, 2 mM TCEP, 0.02% NaN3; NMR at 298 K; EMSA plus 10 mM MgCl2 and 0.6 ug yeast tRNA per 20 ul, 22-24 C). Settings: protein: recombinant; tags: cloned in pET-Trx1a (TEV site); hairpin.

Molecule | binding result
CACACCGUUCUAGGUGCUG (structured_RNA) [19mer_ADE (Ox40 ADE)] | binds

These molecules were tested against T2, ARID49-152 K85A/Q86A (assay: NMR; 2-fold DNA; 20 mM Bis-Tris pH 6.5, 150 mM NaCl, 2 mM TCEP, 0.02% NaN3; NMR at 298 K; EMSA plus 10 mM MgCl2 and 0.6 ug yeast tRNA per 20 ul, 22-24 C). Settings: protein: recombinant; tags: cloned in pET-Trx1a (TEV site); blunt.

Molecule | binding result
13merAT (dsDNA) DNA 1: GCACAATATAACG DNA 2: CGTTATATTGTGC | binds

Each molecule was assayed against T3, Arid5a ARID (Homo sapiens) (assay: pulldown). Settings: 1 and 5 uM protein; 25 mM Tris pH 7.5, 150 mM KCl, 3 mM MgCl2.

Molecule | binding signal (RBNS z-score of enrichment R)
AAAAAAA [7-mer AAAAAAA] | 3.68
AAAAAUA [7-mer AAAAATA] | 3.52
AAAUAUA [7-mer AAATATA] | 4.03
AACAGGC [7-mer AACAGGC] | 4.87
AAUAUAA [7-mer AATATAA] | 3.73
ACAGGCA [7-mer ACAGGCA] | 11.6
AGGCAGA [7-mer AGGCAGA] | 6.46
AGGCAGC [7-mer AGGCAGC] | 7.71
AGGCAGG [7-mer AGGCAGG] | 8.18
AGGCAGU [7-mer AGGCAGT] | 6.38
CAGGCAA [7-mer CAGGCAA] | 6.65
CAGGCAG [7-mer CAGGCAG] | 13
CAGGCAU [7-mer CAGGCAT] | 4.61
GCAGGCA [7-mer GCAGGCA] | 5.88
UACAGGC [7-mer TACAGGC] | 5.55

These molecules were tested against T5, Arid1a extended ARID (assay: EMSA; similar affinity to AT; 20 mM Bis-Tris pH 6.5, 150 mM NaCl, 2 mM TCEP, 0.02% NaN3; NMR at 298 K; EMSA plus 10 mM MgCl2 and 0.6 ug yeast tRNA per 20 ul, 22-24 C). Settings: protein: recombinant; tags: cloned in pET-Trx1a (TEV site); label: 5'-fluorescein on strand 1; blunt.

Molecule | binding result
FAM-13merGC (dsDNA) DNA 1: GCCCCGCCCGCCG DNA 2: CGGCGGGCGGGGC | binds

These molecules were tested against T4, Arid5a ARID49-152 (assay: NMR; 2-fold RNA; 20 mM Bis-Tris pH 6.5, 150 mM NaCl, 2 mM TCEP, 0.02% NaN3; NMR at 298 K; EMSA plus 10 mM MgCl2 and 0.6 ug yeast tRNA per 20 ul, 22-24 C). Settings: protein: recombinant; tags: cloned in pET-Trx1a (TEV site).

Molecule | binding result
ACAGGCAGG (ssRNA) [RBNS-9mer-fw] | binds
CCUGCCUGU (ssRNA) [RBNS-9mer-rev] | binds

The molecules below were run against T1, Arid5a ARID37-183 (assay: NMR; 0.1-fold RNA; 20 mM Bis-Tris pH 6.5, 150 mM NaCl, 2 mM TCEP, 0.02% NaN3; NMR at 298 K; EMSA plus 10 mM MgCl2 and 0.6 ug yeast tRNA per 20 ul, 22-24 C). Settings: protein: recombinant; tags: cloned in pET-Trx1a (TEV site).

Molecule | binding result
Il-6 3'UTR 129 nt (structured_RNA) RNA: GGCACAGAACUUAUGUUGUUCUCUAUGGAGAACUAAAAGUAUGAGCGUUAGGACACUAUUUUAAUUAUUUUUAAUUUAUUAAUAUUUAAAUAUGUGAAGCUGAGUUAAUUUAUGUAAGUCAUAUUUAUA | binds
